Laboratory results from article PMC10214663.

Target: FGF4-Fc (human) (UniProt P08620)
Assay: BLI; Octet RED K2; FGF4-Fc (25 µg/mL) on Protein-A sensors, galectins at 0.2 µM to 6 µM; heterogeneous ligand (2:1) model; steady-state analysis for galectin-1

FGF4-Fc (human), sequence (P08620 31-206): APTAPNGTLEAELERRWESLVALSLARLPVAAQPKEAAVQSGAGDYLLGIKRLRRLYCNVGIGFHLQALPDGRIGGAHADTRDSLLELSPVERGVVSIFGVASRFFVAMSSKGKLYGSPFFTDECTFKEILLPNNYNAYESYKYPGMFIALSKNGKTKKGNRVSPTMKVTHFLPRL

Substance: galectin-8 (natural protein)
- KD1: 724 nM
- KD2: 140 nM
- KOff1: 0.0755 s⁻¹
- KOff2: 0.000115 s⁻¹
- Kon1: 104000 M⁻¹ s⁻¹
- Kon2: 823 M⁻¹ s⁻¹
